Measurements from patent US20260356955 (published 2026).
Residue numbers refer to the chain shown, from its start. Where two headings read alike, the source gives them in different places. One block for each binder: values may come before it.

What was measured:
human KLRB1 ECD [1] = molecular target: human KLRB1 ECD (human); experiment: SPR
human KLRB1 ECD [2] = molecular target: human KLRB1 ECD (human); experiment: SPR; remark: listed apart in the source
human KLRB1 on CHO-K1 = human KLRB1 on CHO-K1 (human); experiment: FACS
human KLRB1 on CHO-K1 (human), sequence (chain, as listed by the source): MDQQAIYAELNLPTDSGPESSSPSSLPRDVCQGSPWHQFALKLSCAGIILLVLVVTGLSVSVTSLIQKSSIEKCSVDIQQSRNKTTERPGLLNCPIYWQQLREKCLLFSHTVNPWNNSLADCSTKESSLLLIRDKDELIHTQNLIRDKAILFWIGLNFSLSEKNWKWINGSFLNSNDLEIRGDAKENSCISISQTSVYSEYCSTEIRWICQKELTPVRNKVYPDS

[3] = molecular target: T1, cynomolgus KLRB1 on CHO-K1 (cynomolgus); experiment: FACS
T1 chain: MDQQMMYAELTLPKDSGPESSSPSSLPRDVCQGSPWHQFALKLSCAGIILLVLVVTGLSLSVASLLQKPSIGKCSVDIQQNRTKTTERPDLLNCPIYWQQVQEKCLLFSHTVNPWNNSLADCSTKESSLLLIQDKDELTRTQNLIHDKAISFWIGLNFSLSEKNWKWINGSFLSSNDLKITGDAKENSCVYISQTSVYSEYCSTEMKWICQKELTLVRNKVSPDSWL

human KLRB1 ECD [4] = molecular target: human KLRB1 ECD (human); experiment: ELISA

human KLRB1 ECD (human), sequence (chain, as listed by the source): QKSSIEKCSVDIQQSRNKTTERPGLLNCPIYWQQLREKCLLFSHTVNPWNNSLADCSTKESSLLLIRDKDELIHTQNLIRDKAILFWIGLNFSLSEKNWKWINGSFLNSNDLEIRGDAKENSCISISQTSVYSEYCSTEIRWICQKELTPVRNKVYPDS

B1: 13H2D11 (antibody, V domains shown)
VH: QVQLQQPGAELVRPGASVKLSCKASGYSFTSYWMNWVKQRPGQGLEWIGMIHPSDSETRLNQKFKDKATLTVDKSSSTAYMQLSSPTSEDSAVYYCASEGFRRGSFAYWGQGTLVTVSA
VL: not shown
Kd (human KLRB1 ECD [1]): 17.1 nM

B2: 92E12F2 (antibody, V domains shown)
VH: DVQLQESGPGLVKPSQSLSLTCSVTGYSITSGYYWNWIRQFPGNKLEWLGYISYDGSNNDNPSLTNRISISRDTSRNQFFLKFNSVTTDDSATYYCARGDFYGYVYWGQGTTLTVSS
VL: DIVLTQSPASLAVSLGQRATISCRASKSVSSSGYTYLHWYQQKPGQPPKLLIYLTSNLDSGVPARFSGSGSGTDFTLNIHPVEEEDAATYYCQHSRELPRTFGGGTKLEIK
Kd (human KLRB1 ECD [1]): 3.33 nM

B3: 57E2E4 chimeric (antibody, V domains shown)
VH: DVQLQESGPGLVKPSQSLSLTCSVTGYSISSGYYWNWIRQFPGNKLEWMAYISYDGSNNYNPSLKNRVSITRDTSKNQFFLRLNSVTAEDTATYYCTRGDFYGYVYWGQGTTLTVSL
VL: B2 VL with S28R, S31T, G33D, T35S, L37M, T55A, D59E, L98F
Kd (human KLRB1 ECD [1]): 0.575 nM

B4: 50A8F2 chimeric (antibody, V domains shown)
VH: QIQLQQSGPELVKPGASVKISCKASGYTFIDYYINWVKQKPGQGLEWIGWIFPGSGHTKYNENFKGKATLTVDTSSSTAYMHLSSLTSEDTAVYFCARGDRSALGYFDYWGQGSTLTVSS
VL: QIVLTQSPAIMSASLGERVTMTCTASSSVSSTYLHWYQQKPGSSPKLWIYSTSNLASGVPARFSGSGSGTSYSLTFSSMEAEDAATYYCHQYHRSPLTFGAGTKLELK
Kd (human KLRB1 ECD [2]): 0.229 nM
Kd (human KLRB1 ECD [1]): 0.0521 nM
EC50 (human KLRB1 on CHO-K1): 5.87 nM
binding result [3]: no binding
EC50 (human KLRB1 ECD [4]): 0.0252 nM

B5: 5B1B11 chimeric (antibody, V domains shown)
VH: QVQLQQPGAELVKPGASVKLSCKASGYTFTNYWMHWVKQRPGQGLEWIGEINPSNGRTNFNEKFKSKATLTVDKSSSTAYMQLSSLTSEDSAVYYCARSYDSYYAAVDYWGQGTSVTVSS
VL: QIVLTQSPAIMSASLGEEITLTCSASSSVSYMHWYQQKSGTSPKLLIYTTSNLPSGVPSRFSGSGSGTFYSLTISSVEAEDAADYYCHQWSTYPYTFGGGTKLEIK
Kd (human KLRB1 ECD [1]): 0.255 nM

B6: 66G9C11 (antibody, V domains shown)
VH: HVQLQQSGPELVRPGASVKLSCKASGYIFFTFWMNWVKQRPGQGLEWIGQIFPASGSTNYNEMFEGKATLTVDTSSSTAYMQLSSLTSEDSAVYYCASLERAWFAYWGQGTLVTVSA
VL: DIVLTQSPATLSVTPGDRVSLSCRASQSINNYLHWYQQKSHESPRLLIKYASQSISGIPSRFSGSGSGADFTLSINSVETEDFGMYFCQQSNSWPPTFGGGTKLEIK
Kd (human KLRB1 ECD [1]): 6.38 nM

B7: Hu50A8F2-01 (antibody, V domains shown)
VH: QVQLVQSGAEVKKPGASVKVSCKASGYTFIDYYINWVRQAPGQGLEWMGWIFPGSGHTKYNENFKGRVTMTRDTSTSTVYMELSSLRSEDTAVYYCARGDRSALGYFDYWGQGTTVTVSS
VL: DIQMTQSPSSLSASVGDRVTITCTASSSVSSTYLHWYQQKPGKAPKLLIYSTSNLASGVPSRFSGSGSGTDFTLTISSLQPEDFATYYCHQYHRSPLTFGQGTKLEIK
Kd (human KLRB1 ECD [2]): 1.55 nM
EC50 (human KLRB1 on CHO-K1): 5.54 nM
binding result [3]: no binding
EC50 (human KLRB1 ECD [4]): 0.0197 nM

B9: Hu50A8F2-05 (antibody, V domains shown)
VH: B7 VH with R67K, R72V
VL: B7 VL
EC50 (human KLRB1 on CHO-K1): 5.51 nM
binding result [3]: no binding
EC50 (human KLRB1 ECD [4]): 0.0183 nM

B11: Hu50A8F2-02 (antibody, V domains shown)
VH: B7 VH
VL: B7 VL with F72Y
EC50 (human KLRB1 on CHO-K1): 5.81 nM
binding result [3]: no binding
EC50 (human KLRB1 ECD [4]): 0.0167 nM

B19: Hu50A8F2-03 (antibody, V domains shown)
VH: B7 VH
VL: B7 VL with M4L, A44S, F72Y
Kd (human KLRB1 ECD [2]): 0.665 nM
EC50 (human KLRB1 on CHO-K1): 5.17 nM
binding result [3]: no binding
EC50 (human KLRB1 ECD [4]): 0.0113 nM

B20: 5A11D10 chimeric (antibody, V domains shown)
VH: DVQLQESGPGQVKPSQSLSLTCTVTGYSLTSDFAWNWIRQFPGNKLEWMGDIRYSGSTDYNPSLKTRSSITRDTSKNQFFLHLNSVTTEDTATYYCARGGYYGYDEGYPMDYWGQGTSVTVSS
VL: NIVLTQSPASLAVSLGQRATISCRASESVDVYGNSFMHWYQQKAGQPPKLLIYLAFNLKSGVPARFSGSGSRTDFTLTIDPVEADDAATYYCQQNNEDPFTFGSGTKLEIK
Kd (human KLRB1 ECD [1]): 0.0591 nM

B21: 9C10G11 (antibody, V domains shown)
VH: QVQLKESGPGLVAPSQSLSITCTVSGFSLTGYGVNWVRQPPGKGLEWLGMIWGDGSTDYNSALKSRLSISKDNSKSQVFLKMNSLQTDDTARYYCARTYNNYHYWYFDVWGAGTTVTVSS
VL: DIQMTQSPASLSASVGETVTITCRASGNIHNYLAWYQQKQGKSPQLLVYNAKTLADGVPSRFSGSGSGTQYSLKINSLQPEDFGSYYCQHFWSTPYTFGGGTKLEIK
Kd (human KLRB1 ECD [1]): 14.8 nM

B22: 37G6A7 (antibody, V domains shown)
VH: B21 VH with G31D, S68T, N100G, N101T
VL: B21 VL with N50I, S85T
Kd (human KLRB1 ECD [1]): 23.3 nM

B23: 7B6C7 chimeric (antibody, V domains shown)
VH: B21 VH with T30N, G31D, G44A, S68T, S70T, Q86H, Y94F, N101Y
VL: B21 VL with A34S, K52E, S77N
Kd (human KLRB1 ECD [1]): 0.0147 nM

B24: 39C5D6 (antibody, V domains shown)
VH: B21 VH with G31D, P40T, S61L, A62P, S70T, N100A
VL: B21 VL with A55E, E81D, S85N, Y87F
Kd (human KLRB1 ECD [1]): 1.21 nM

B25: 52G9B12B5 chimeric (antibody, V domains shown)
VH: QVQLQQSGAELMQPGTSVKIPCKATGYTFSSFWMEWVKQRPGHGLEWIGEIFPGSGSTNYNEKFKGKATFTADTSSNTAYMQLSSLTSEDSAVYYCATLITTGLTYWGQGTLVTVSA
VL: NIVMTQSHKFMSTSVGDRVSITCKASQDVNTAVAWYQQIPGRSPKLLIYWASTRHTGVPDRFTGSGSGTDYTLTISSVQAEDLAFYYCQQHYRIPFTFGAGTKLELK
Kd (human KLRB1 ECD [1]): 4.4 nM

B26: 62H1D6 (antibody, V domains shown)
VH: QVQLQQSGPELVRPGVSVKISCKGSGYTFTDYAMHWVKQSHAKSLEWIGVISTYYGNTNYNQKFKGRATMTVDKSSSTAYMELARLTSEDSAIYYCAREYGNYPYYYAMDYWGQGTSVTVSS
VL: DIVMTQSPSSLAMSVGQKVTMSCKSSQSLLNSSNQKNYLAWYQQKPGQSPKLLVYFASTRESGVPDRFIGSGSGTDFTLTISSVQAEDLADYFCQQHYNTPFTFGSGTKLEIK
Kd (human KLRB1 ECD [1]): 7.03 nM

More lines, now with the values ahead:

EC50 (human KLRB1 on CHO-K1): 5.44 nM
binding result [3]: no binding
EC50 (human KLRB1 ECD [4]): 0.0111 nM
B8: Hu50A8F2-08 (antibody, V domains shown)
VH: B7 VH with R67K, R72V
VL: B7 VL with M4L, A44S, F72Y, F84A

EC50 (human KLRB1 on CHO-K1): 5.12 nM
binding result [3]: no binding
EC50 (human KLRB1 ECD [4]): 0.0121 nM
B10: Hu50A8F2-14 (antibody, V domains shown)
VH: B7 VH with M48I, R67K, M70L, R72V, Y95F
VL: B7 VL with F72Y

EC50 (human KLRB1 on CHO-K1): 5.77 nM
binding result [3]: no binding
EC50 (human KLRB1 ECD [4]): 0.014 nM
B12: Hu50A8F2-12 (antibody, V domains shown)
VH: B7 VH with R67K, M70L, R72V
VL: B7 VL with M4L, A44S, F72Y, F84A

Kd (human KLRB1 ECD [2]): 0.828 nM
EC50 (human KLRB1 on CHO-K1): 5.44 nM
binding result [3]: no binding
EC50 (human KLRB1 ECD [4]): 0.0236 nM
B13: Hu50A8F2-06 (antibody, V domains shown)
VH: B7 VH with R67K, R72V
VL: B7 VL with F72Y

EC50 (human KLRB1 on CHO-K1): 5.4 nM
binding result [3]: no binding
EC50 (human KLRB1 ECD [4]): 0.0189 nM
B14: Hu50A8F2-09 (antibody, V domains shown)
VH: B7 VH with R67K, M70L, R72V
VL: B7 VL

EC50 (human KLRB1 on CHO-K1): 5.67 nM
binding result [3]: no binding
EC50 (human KLRB1 ECD [4]): 0.0187 nM
B15: Hu50A8F2-10 (antibody, V domains shown)
VH: B7 VH with R67K, M70L, R72V
VL: B7 VL with F72Y

EC50 (human KLRB1 on CHO-K1): 5.06 nM
binding result [3]: no binding
EC50 (human KLRB1 ECD [4]): 0.0104 nM
B16: Hu50A8F2-13 (antibody, V domains shown)
VH: B7 VH with M48I, R67K, M70L, R72V, Y95F
VL: B7 VL

EC50 (human KLRB1 on CHO-K1): 5.43 nM
binding result [3]: no binding
EC50 (human KLRB1 ECD [4]): 0.0144 nM
B17: Hu50A8F2-11 (antibody, V domains shown)
VH: B7 VH with R67K, M70L, R72V
VL: B7 VL with M4L, A44S, F72Y

EC50 (human KLRB1 on CHO-K1): 5.72 nM
binding result [3]: no binding
EC50 (human KLRB1 ECD [4]): 0.0174 nM
B18: Hu50A8F2-07 (antibody, V domains shown)
VH: B7 VH with R67K, R72V
VL: B7 VL with M4L, A44S, F72Y
